In patent publication US20190270815A1 (WUXI BIOLOGICS IRELAND, published 2019) one finds binding result and EC50 data, which are given here for 5 molecules.

The target of experiment [1] is T1, murine PD-1 (Sino biological) (murine, UniProt Q02242 25-167, limits assumed).
T1 sequence (looked up): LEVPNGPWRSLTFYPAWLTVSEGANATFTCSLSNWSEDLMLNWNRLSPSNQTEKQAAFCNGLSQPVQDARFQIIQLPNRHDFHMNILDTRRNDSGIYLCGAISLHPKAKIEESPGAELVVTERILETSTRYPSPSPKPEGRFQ
The experiment can be described thus: ELISA on plate-coated murine PD-1. As to the method:
3.3.1 Cross-reactivity to cynomolgus PD-1 and murine PD-1: Cross-reactivity was measured by ELISA. Plates (Nunc) were coated with cynomolgus PD-1 (Sino Biological) and murine PD-1 (Sino biological) at 1 μg/ml overnight at 4° C. After blocking and washing, […] antibodies were added to the plates and incubated at room temperature for 1 h. The plates were then washed and subsequently incubated with secondary antibody goat anti rat IgG1 HRP (Bethyl) and goat anti rat IgG2b HRP (Bethyl) for 45 min. After washing, TMB substrate was added and the interaction was stopped by 2M HCl. The absorbance at 450 nm was read using a microplate reader (Molecular Device).

For experiment [2], the target named is T2, human PD-1 expressed on cells (human, UniProt Q15116 25-288).
T2 construct: whole, on cells; also called PD-1 expressing CHO cell; PD-1 transfected CHO-S cells
T2 sequence (Q15116 25-288): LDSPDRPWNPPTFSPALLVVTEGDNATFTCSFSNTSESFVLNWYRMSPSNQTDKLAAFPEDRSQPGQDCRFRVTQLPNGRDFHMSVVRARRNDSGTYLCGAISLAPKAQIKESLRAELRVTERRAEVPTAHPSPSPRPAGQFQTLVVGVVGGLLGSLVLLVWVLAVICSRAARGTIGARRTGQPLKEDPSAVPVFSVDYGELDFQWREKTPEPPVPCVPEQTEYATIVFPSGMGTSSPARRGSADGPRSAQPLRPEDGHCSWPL
The experiment can be described thus: FACS on CHO-S cells expressing human PD-1. The procedure:
(§1) 3.1 Binding affinity of PD-1 antibodies to cell surface PD-1 molecules tested by flow cytometry (FACS): Antibody binding affinity to cell surface PD-1 was performed by FACS analysis. CHO-S cells expressing human PD-1 were transferred in to 96-well U-bottom plates (BD) at a density of 5×10⁵ cells/ml. Tested antibodies were 1:2 serially diluted in wash buffer (1×PBS/1% BSA) and incubated with cells at 4° C. for 1 h. The secondary antibody goat anti-human IgG Fc FITC (3.0 moles FITC per mole IgG, (Jackson Immunoresearch Lab) was added and incubated at 4° C. in the dark for 1 h. The cells were then washed once and resuspended in 1×PBS/1% BSA, and analyzed by flow cytometery (BD). Fluorescence intensity will be converted to bound molecules/cell based on the quantitative beads Quantum™ MESF Kits, Bangs Laboratories, Inc.). KD was calculated using Graphpad Prism5.

Experiment [3] deals with T2, human PD-1 expressed on cells. The experiment can be described thus: FACS on CHO-S cells expressing human PD-1, antibody in formulation buffer. The procedure: as §1
For experiment [4] the target is unchanged. The experiment can be described thus: FACS on CHO-S cells expressing human PD-1, antibody in 1xPBS pH 7.4. As to the method: as §1

B1: 1.7.3 hAb (antibody, V domains shown)
VH: QLQLQESGPGLVKPSETLTLTCTVSGDSISSTTYYWVWIRQPPGKGLEWIGSISYSGNTYYNPSLKSRVTISVDTSKNHFSLKLSSVAATDTALYYCARHLGYNGRYLPFDYWGQGTLVTVSS
VL: QSALTQPASVSGSPGQSITISCTGTSSDVGFYNYVSWYQQHPGKAPELMIYDVTNRPSGVSDRFSGSKSGNTASLTISGLQAEDEADYYCSSYTSISTWVFGGGTKLTVL
notes: fully human monoclonal antibody with a human constant region of IgG4 isotype
Consider B1, for which the binding result in experiment [1] is “no binding (tested: 1 g/ml antibodies (so in the source))”. Also, the EC50 – broadly, the concentration that produces a half-maximal response – in experiment [2] is around 2 nM.

B2: 1.103.11-v2 hAb (antibody, IgG4, V domains shown)
VH: QLQLQESGPGLVKPSETLTLTCTVSADSISSTTYYWVWIRQPPGKGLEWIGSISYSGSTYYNPSLKSRVTVSVDTSKNQFSLKLNSVAATDTALYYCARHLGYNGRYLPFDYWGQGTLVTVSS
VL: QSALTQPASVSGSPGQSITISCTGTSSDVGFYNYVSWYQQHPGKAPELMIYDVSNRPSGVSDRFSGSKSGNTASLTISGLQAEDEADYYCSSYTSISTWVFGGGTKLTVL
notes: human constant region of IgG4 isotype
As for B2, the EC50 in experiment [3] is around 3.12 nM; in experiment [4], around 2.52 nM.

B3: 1.49.9 hAb (antibody, V domains shown)
VH: QLQLQESGPGLVKPSETLSLTCTVSGGSISSSTYYWGWIRQPPGKGLEWIGSISYSGSTYYNPSLKSRVTISVDTSKNQFSLKLSSVTDADTAVYYCARHLGYNGRYLPFDYWGQGTLVTVSS
VL: QSALTQPASVSGSPGQSITISCTGTSSDVGFYNYVSWYQQHPGKAPEVMIYDVSNRPSGVSDRFSGSKSGNTASLTISGLQAEDEADYYCSSYTSISTWVFGGGTKLTVL
notes: as for B1
B3: the binding result in experiment [1] is listed as “no binding (tested: 1 g/ml antibodies (so in the source))”. In experiment [2], this molecule came in with a 50% effective concentration (EC50) of around 2 nM.

B4: 1.139.15 hAb (antibody, V domains shown)
VH: QLQLQESGPGLVKPSETLSLTCTVSGGSISSTTYYWGWIRQPPGKGLEWIGSISYSGTTYYNPSLKSRVTIPVDTSKNQISLKLSSVTAADTSLYYCARHLGYNSNWYPFDYWGQGTLVTVSS
VL: QSALTQPPSVSGSPGQSVTISCTGTSSDVGSYNRVSWYQQPPGTAPEVIIYEVSNRPSGVPDRFSGSKSGNTASLTISGLQAEDEADYYCSSYTSSSTWVFGGGTKLTVL
notes: as for B1
B4: in experiment [1], the binding result is on record as “no binding (tested: 1 g/ml antibodies (so in the source))”. The molecule further showed an EC50 in experiment [2] of around 2 nM.

B5: 1.153.7 hAb (antibody, V domains shown)
VH: EVQLLESGGGLVQPGGSLRLSCAASGFTFSSHAMSWVRQAPGKGLEWVSTITGGGGSIYYADSVKGRFTISRDNSKNTLYLQMNSLRAEDTAVYYCAKNRAGEGYFDYWGQGTLVTVSS
VL: SYELTQPLSVSVALGQTARITCGGDNIGNKDVHWYQQKPGQAPVLVIYRDSNRPSGIPEGFSGSNSGNTATLTISRAQAGDEADYYCQVWDSIWVFGGGTKLTVL
notes: as for B1
With B5, in experiment [1], the binding result is recorded as “no binding (tested: 1 g/ml antibodies (so in the source))”. The molecule also gave an EC50 in experiment [2] of around 2 nM.
